# Experimental data: US20240252614A1 (Pfizer, published 2024)
# B1: hMPV-2 mAb (antibody, V domains shown)
# VH: QVQLQQSGAEVKKPGASVKVSCKASGYTFTSYGISWVRQAPGQGLEWMGWISGYNGNTNYAQTFQGTFTMTTDTSTSTAYMELRRLRSGDTAVYYCARDRYYASGSYNGMDVWGQGTTVTVSS
# VL: QSALTQPPSASGAPGQRVTVSCSGSSSNVGSSSVYWYQQLPGTAPKLLIYRNNQRPSGVPDRFSGSKSGTSASLAISGLRSEDEADYYCAAWDDSLSGWVFGGGTKLTVLG
# notes: human IgG1
# B2: PIV1-8 mAb (antibody, V domains shown)
# VH: QVQLVQSGAEVKKPGSSVKVSCEASGGTFSNYVISWVRQAPGQGLEWMGGIIPVFATAKYAQKFQGRVTIIADQSTNTAYLELSSLRSDDTAVYFCASVDSGGTWWDAFAIWGQGTMVTVSS
# VL: QAVVTQPRSVSGSPGQAVTISCTGTSSDVGGYNYVSWYQHHPGKAPKLIIYDVTKRPSGVPDRFSGSKSGNTASLTISGLQTEYEADYYCCSYAGSYTLVFGGGTKLTVLG
# notes: human IgG1; also called hPIV1-8 mAb; hPIV1-8
# Key:
# [1] = target: T1, stabilized hMPV F protein trimer in pre-fusion conformation (human metapneumovirus); assay: BLI, mAb captured, F protein at 50 nM
# T1 construct: also called preF-hMPV; hMPV pre-fusion F protein
# hMPV078 = target: T2, hMPV078 (hMPV A, UniProt Q6WB98 19-102); assay: BLI, 53C stress
# T2 construct: T411C-Q434C, A140C-S149C
# Description: (§1) The OCTET HTX (Sartorius, Gottingen, Germany) instrument was used to evaluate the expression and conformational integrity for each mutant. All measurements were conducted at 30° C. temperature in 96-well black plates (Corning, Corning, NY) with a final volume of 240 μL per well at a constant agitation rate of 1000 RPM.
# (§2) Conformation integrity of hMPV A F protein mutants were evaluated by thermal stress experiments. Crude cell culture supernatants were normalized based on the results of the titer quantitation and then incubated for 1 hour at room temperature and two higher temperatures. […] Anti-Human IgG Fc Capture (AHC) biosensors were first equilibrated in PB before being dipped into more PB to establish the initial baseline. […] The mAb-bound biosensors were then dipped into the thermal stressed cell culture supernatants for 5 minutes. The kinetics analysis was done by OCTET data analysis software (version 12.0, Sartorius) based on curve fitting of the entire associate step.
# hMPV082 = target: T3, hMPV082 (hMPV A, UniProt Q6WB98 19-102); assay: BLI, 53C stress
# T3 construct: T411C-Q434C, A140C-S149C, G239A
# Description: as §1, §2
# hMPV084 = target: T4, hMPV084 (hMPV A, UniProt Q6WB98 19-102); assay: BLI, 53C stress
# T4 construct: T411C-Q434C, L141C-A161C
# Description: as §1, §2
# hMPV088 = target: T5, hMPV088 (hMPV A, UniProt Q6WB98 19-102); assay: BLI, 53C stress
# T5 construct: T411C-Q434C, L141C-A161C, G239A
# Description: as §1, §2
# hMPV087 = target: T6, hMPV087 (hMPV A, UniProt Q6WB98 19-102); assay: BLI, 53C stress
# T6 construct: T411C-Q434C, L141C-A161C, T365I
# Description: as §1, §2
# hMPV A F WT Control = hMPV A F WT Control (hMPV A, UniProt Q6WB98 19-102); assay: BLI, 50C stress, vs WT Control
# Description: as §1, §2
# hMPV060 = target: T7, hMPV060 (hMPV A, UniProt Q6WB98 19-102); assay: BLI, 50C stress, vs WT Control
# T7 construct: A459P
# Description: as §1, §2
# hMPV045 = target: T8, hMPV045 (hMPV A, UniProt Q6WB98 19-102); assay: BLI, 50C stress, vs WT Control
# T8 construct: I137C-A159C
# Description: as §1, §2
# hMPV048 = target: T9, hMPV048 (hMPV A, UniProt Q6WB98 19-102); assay: BLI, 50C stress, vs WT Control
# T9 construct: L141C-A161C
# Description: as §1, §2
# hMPV071 = target: T10, hMPV071 (hMPV A, UniProt Q6WB98 19-102); assay: BLI, 50C stress, vs WT Control
# T10 construct: T365I
# Description: as §1, §2
# hMPV061 = target: T11, hMPV061 (hMPV A, UniProt Q6WB98 19-102); assay: BLI, 50C stress, vs WT Control
# T11 construct: G106A
# Description: as §1, §2
# hMPV053 = target: T12, hMPV053 (hMPV A, UniProt Q6WB98 19-102); assay: BLI, 50C stress, vs WT Control
# T12 construct: L110P
# Description: as §1, §2
# hMPV043 = target: T13, hMPV043 (hMPV A, UniProt Q6WB98 19-102); assay: BLI, 50C stress, vs WT Control
# T13 construct: G366C-D454C
# Description: as §1, §2
# hMPV044 = target: T14, hMPV044 (hMPV A, UniProt Q6WB98 19-102); assay: BLI, 50C stress, vs WT Control
# T14 construct: T411C-Q434C
# Description: as §1, §2
# hMPV069 = target: T15, hMPV069 (hMPV A, UniProt Q6WB98 19-102); assay: BLI, 50C stress, vs WT Control
# T15 construct: S291I
# Description: as §1, §2
# hMPV054 = target: T16, hMPV054 (hMPV A, UniProt Q6WB98 19-102); assay: BLI, 50C stress, vs WT Control
# T16 construct: S132P
# Description: as §1, §2
# hMPV067 = target: T17, hMPV067 (hMPV A, UniProt Q6WB98 19-102); assay: BLI, 50C stress, vs WT Control
# T17 construct: S149T
# Description: as §1, §2
# hMPV068 = target: T18, hMPV068 (hMPV A, UniProt Q6WB98 19-102); assay: BLI, 50C stress, vs WT Control
# T18 construct: A159V
# Description: as §1, §2
# hMPV059 = target: T19, hMPV059 (hMPV A, UniProt Q6WB98 19-102); assay: BLI, 50C stress, vs WT Control
# T19 construct: V449P
# Description: as §1, §2
# hMPV063 = target: T20, hMPV063 (hMPV A, UniProt Q6WB98 19-102); assay: BLI, 50C stress, vs WT Control
# T20 construct: G239A
# Description: as §1, §2
# hMPV049 = target: T21, hMPV049 (hMPV A, UniProt Q6WB98 19-102); assay: BLI, 50C stress, vs WT Control
# T21 construct: E146C-T160C
# Description: as §1, §2
# hMPV047 = target: T22, hMPV047 (hMPV A, UniProt Q6WB98 19-102); assay: BLI, 50C stress, vs WT Control
# T22 construct: L141C-A159C
# Description: as §1, §2
# hMPV066 = target: T23, hMPV066 (hMPV A, UniProt Q6WB98 19-102); assay: BLI, 50C stress, vs WT Control
# T23 construct: T49I
# Description: as §1, §2
# hMPV046 = target: T24, hMPV046 (hMPV A, UniProt Q6WB98 19-102); assay: BLI, 50C stress, vs WT Control
# T24 construct: A140C-S149C
# Description: as §1, §2
# hMPV058 = target: T25, hMPV058 (hMPV A, UniProt Q6WB98 19-102); assay: BLI, 50C stress, vs WT Control
# T25 construct: L187P
# Description: as §1, §2
# hMPV077 = target: T26, hMPV077 (hMPV A, UniProt Q6WB98 19-102); assay: BLI, 50C stress, vs WT Control
# T26 construct: Q476C, S477C
# Description: as §1, §2
# hMPV075 = target: T27, hMPV075 (hMPV A, UniProt Q6WB98 19-102); assay: BLI, 50C stress, vs WT Control
# T27 construct: L473F
# Description: as §1, §2
# hMPV062 = target: T28, hMPV062 (hMPV A, UniProt Q6WB98 19-102); assay: BLI, 50C stress, vs WT Control
# T28 construct: G121A
# Description: as §1, §2
# hMPV055 = target: T29, hMPV055 (hMPV A, UniProt Q6WB98 19-102); assay: BLI, 50C stress, vs WT Control
# T29 construct: N145P
# Description: as §1, §2
# hMPV050 = target: T30, hMPV050 (hMPV A, UniProt Q6WB98 19-102); assay: BLI, 50C stress, vs WT Control
# T30 construct: V148C-L158C
# Description: as §1, §2
# hMPV052 = target: T31, hMPV052 (hMPV A, UniProt Q6WB98 19-102); assay: BLI, 50C stress, vs WT Control
# T31 construct: L66P
# Description: as §1, §2
binder,measurement,setting,value
B1,Binding response BLI,[1],1.21 nm
same,Response Shift,hMPV078,0.757 nm
same,Response Shift,hMPV082,0.816 nm
same,Response Shift,hMPV084,0.776 nm
same,Response Shift,hMPV088,0.816 nm
same,Response Shift,hMPV087,0.709 nm
same,Fold change vs WT,hMPV A F WT Control,1 fold
same,Fold change vs WT,hMPV060,2.5 fold
same,Fold change vs WT,hMPV045,0.4 fold
same,Fold change vs WT,hMPV048,1.5 fold
same,Fold change vs WT,hMPV071,2.4 fold
same,Fold change vs WT,hMPV061,2 fold
same,Fold change vs WT,hMPV053,2 fold
same,Fold change vs WT,hMPV043,2 fold
same,Fold change vs WT,hMPV044,2.6 fold
same,Fold change vs WT,hMPV069,1.6 fold
same,Fold change vs WT,hMPV054,1.6 fold
same,Fold change vs WT,hMPV067,2.3 fold
same,Fold change vs WT,hMPV068,1.6 fold
same,Fold change vs WT,hMPV059,1.6 fold
same,Fold change vs WT,hMPV063,2.4 fold
same,Fold change vs WT,hMPV049,1.9 fold
same,Fold change vs WT,hMPV047,-0.1 fold
same,Fold change vs WT,hMPV066,2.6 fold
same,Fold change vs WT,hMPV046,1.7 fold
same,Fold change vs WT,hMPV058,1.7 fold
same,Fold change vs WT,hMPV077,2.2 fold
same,Fold change vs WT,hMPV075,2.3 fold
same,Fold change vs WT,hMPV062,1.6 fold
same,Fold change vs WT,hMPV055,0.7 fold
same,Fold change vs WT,hMPV050,0.5 fold
same,Fold change vs WT,hMPV052,2.2 fold
B2,Binding response BLI,[1],-0.051 nm
